Laboratory results published in publication PMC3864119 (Journal of proteome research, 2013).

Biological target: FLAG-tagged human GABAC-ρ1 subunit V353D (human, UniProt P24046 22-479, V353D)
Assay: co-IP

fold change of the ratio of immunoprecipitated calnexin/ρ1 against WT: 1.8 fold
B1: Calnexin (natural protein, human (endogenous in HEK293), UniProt P27824 21-592, looked up)
chain: HDGHDDDVIDIEDDLDDVIEEVEDSKPDTTAPPSSPKVTYKAPVPTGEVYFADSFDRGTLSGWILSKAKKDDTDDEIAKYDGKWEVEEMKESKLPGDKGLVLMSRAKHHAISAKLNKPFLFDTKPLIVQYEVNFQNGIECGGAYVKLLSKTPELNLDQFHDKTPYTIMFGPDKCGEDYKLHFIFRHKNPKTGIYEEKHAKRPDADLKTYFTDKKTHLYTLILNPDNSFEILVDQSVVNSGNLLNDMTPPVNPSREIEDPEDRKPEDWDERPKIPDPEAVKPDDWDEDAPAKIPDEEATKPEGWLDDEPEYVPDPDAEKPEDWDEDMDGEWEAPQIANPRCESAPGCGVWQRPVIDNPNYKGKWKPPMIDNPSYQGIWKPRKIPNPDFFEDLEPFRMTPFSAIGLELWSMTSDIFFDNFIICADRRIVDDWANDGWGLKKAADGAAEPGVVGQMIEAAEERPWLWVVYILTVALPVFLVILFCCSGKKQTSGMEYKKTDAPQPDVKEEEEEKEEEKDKGDEEEEGEEKLEEKQKSDAEEDGGTVSQEEEDRKPKAEEDEILNRSPRNRKPRRE
